1 molecule from PMC9108607, “The intrinsically disordered CARDs‐Helicase linker in RIG‐I is a molecular gate for RNA proofreading” can be followed below.

The target of series [1] is T1, Δ190-200 RIG-I (human, UniProt O95786 1-925, del190-200).
T1 sequence: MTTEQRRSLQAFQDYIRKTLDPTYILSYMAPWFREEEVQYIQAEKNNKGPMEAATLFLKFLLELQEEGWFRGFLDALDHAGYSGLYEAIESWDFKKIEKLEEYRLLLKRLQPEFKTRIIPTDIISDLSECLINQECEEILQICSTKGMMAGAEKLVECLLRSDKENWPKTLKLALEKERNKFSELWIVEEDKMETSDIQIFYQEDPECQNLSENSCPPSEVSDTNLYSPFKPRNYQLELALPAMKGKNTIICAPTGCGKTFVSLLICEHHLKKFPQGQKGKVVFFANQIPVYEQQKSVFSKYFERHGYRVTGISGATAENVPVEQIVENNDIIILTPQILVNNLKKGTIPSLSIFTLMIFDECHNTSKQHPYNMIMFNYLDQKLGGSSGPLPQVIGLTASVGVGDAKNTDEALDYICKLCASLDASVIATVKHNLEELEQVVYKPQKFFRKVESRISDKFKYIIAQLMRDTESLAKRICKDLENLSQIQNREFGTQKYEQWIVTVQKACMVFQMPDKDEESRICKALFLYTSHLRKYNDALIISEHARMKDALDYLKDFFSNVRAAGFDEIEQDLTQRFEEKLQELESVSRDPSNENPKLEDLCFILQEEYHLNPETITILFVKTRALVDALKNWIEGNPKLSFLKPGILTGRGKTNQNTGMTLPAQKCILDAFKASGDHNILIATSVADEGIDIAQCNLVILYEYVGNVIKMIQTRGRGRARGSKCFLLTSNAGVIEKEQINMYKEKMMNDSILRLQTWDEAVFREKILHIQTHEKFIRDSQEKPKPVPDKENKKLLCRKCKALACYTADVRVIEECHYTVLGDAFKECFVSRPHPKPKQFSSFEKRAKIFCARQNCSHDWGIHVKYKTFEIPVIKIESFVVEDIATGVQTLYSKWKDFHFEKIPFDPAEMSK
The series can be described thus: EMSA; streptavidin, ±2 mM ATP; oligomerizes with ATP; Buffer A: 50 mM MOPS pH 7.4, 5 mM DTT, 5 mM MgCl2, 0.01% Tween20, 25°C (fluorimetry: 15 nM RNA; ATPase: 15 nM protein, 1 mM ATP); EMSA in Buffer A at 4°C. As to conditions: protein: recombinant; tags: 6xHis-SUMO removed by Ulp1; label: 3' DY547 and 5' biotin on strand 2; blunt.

Series [2] has as its target T2, WT RIG-I (human, UniProt O95786 1-925).
T2 sequence: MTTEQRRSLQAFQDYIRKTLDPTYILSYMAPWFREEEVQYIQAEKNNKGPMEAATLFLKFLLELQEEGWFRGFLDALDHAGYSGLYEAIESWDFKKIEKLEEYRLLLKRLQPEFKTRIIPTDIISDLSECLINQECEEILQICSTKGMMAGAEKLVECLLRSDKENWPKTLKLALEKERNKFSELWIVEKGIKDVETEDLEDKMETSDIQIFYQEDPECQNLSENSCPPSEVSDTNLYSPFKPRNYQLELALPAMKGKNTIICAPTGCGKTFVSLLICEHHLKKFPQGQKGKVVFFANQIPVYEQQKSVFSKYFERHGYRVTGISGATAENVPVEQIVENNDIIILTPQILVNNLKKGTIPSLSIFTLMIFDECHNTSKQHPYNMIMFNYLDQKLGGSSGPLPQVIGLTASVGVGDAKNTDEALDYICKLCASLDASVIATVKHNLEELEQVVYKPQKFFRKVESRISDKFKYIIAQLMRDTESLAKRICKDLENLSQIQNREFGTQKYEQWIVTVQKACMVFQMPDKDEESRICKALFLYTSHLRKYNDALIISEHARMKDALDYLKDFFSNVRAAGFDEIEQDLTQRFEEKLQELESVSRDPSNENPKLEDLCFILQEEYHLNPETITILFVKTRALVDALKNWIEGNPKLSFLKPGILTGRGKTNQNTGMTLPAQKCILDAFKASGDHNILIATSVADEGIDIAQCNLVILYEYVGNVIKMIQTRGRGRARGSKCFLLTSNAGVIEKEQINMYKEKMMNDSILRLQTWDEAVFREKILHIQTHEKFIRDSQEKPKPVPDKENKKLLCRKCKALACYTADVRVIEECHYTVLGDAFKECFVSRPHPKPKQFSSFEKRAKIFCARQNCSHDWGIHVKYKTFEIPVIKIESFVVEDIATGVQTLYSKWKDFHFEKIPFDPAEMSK
The series can be described thus: RNA-dependent ATPase titration (KD,app); 1 mM ATP; Buffer A: 50 mM MOPS pH 7.4, 5 mM DTT, 5 mM MgCl2, 0.01% Tween20, 25°C (fluorimetry: 15 nM RNA; ATPase: 15 nM protein, 1 mM ATP); EMSA in Buffer A at 4°C. The conditions noted are these: protein: recombinant; tags: 6xHis-SUMO removed by Ulp1; label: 3' DY547 and 5' biotin on strand 2; blunt. Background: Mobility shift assays separate free from complexed probe on a gel.

B1: 5'ppp ds27 (dsRNA)
RNA 1: AUACGUCCUGAUAGUUAGUAUCCAUCG
RNA 2: CGAUGGAUACUAACUAUCAGGACGUAU
modifications: 5'ppp on strand 1
Turning to B1, in series [1], the binding result is “binds”. For the same molecule, the “apparent KD relative to Hel-CTD” value in series [2] is approximately 5 fold weaker than Hel-CTD.
